Test results as given in PMC11053944, “FRET Assays for the Identification of C. albicans HSP90-Sba1 and Human HSP90α-p23 Binding Inhibitors” (Pharmaceuticals, 2024).
Entries after “also recorded” stand apart in the source; their conditions may differ.

B1: Sba1: unlabeled C. albicans HSP90 co-chaperone Sba1 (UniProtKB A0A1D8PQ94), His6-tagged; yeast Sba1 in cited values (protein)
chain: MSSTTTQTPTVLWAQRSSEDDAAKNIIYLTIQISDPIDLKIDLKSDHLIIDSKSNDSVYSSIDYHLQIDFFKEIDPDQSKINTENGSHIFMILRKKDQQEEYWPRLTKEKLKYHYIKTDFDKWVDEDEQDEVKDDPNDFGGPGGPGGAMDFSQMLSGMGGLGGAGGSGGPGGVDLSALASQLGQAGGAGGAAGLDGEEGEEGEAEAKEAQEESNTTATEKE
modifications: left off: His6, N-terminal, state not stated
notes: unlabeled C. albicans HSP90 co-chaperone Sba1 (UniProtKB A0A1D8PQ94), His6-tagged; yeast Sba1 in cited values
B2: Aha1: C. albicans co-chaperone Aha1, activator of HSP90 ATPase (A0A1D8PU72); yeast Aha1 in cited values (protein)
chain: MVVNNPNNWHWVDKNCLPWSVDYFKDKLINLKVTDGTNNVHISEVSSVEGDVDVSQRKGKVISLFDIKIVLTFKGNTAKDDNVSGSITIPELTYDSEVDGLQFDISIYNETAENSGITDLIKKQLIPQLRTALMKFGPDLIEINSKDIQLSQDKVTSTYTKANQSSTIAATADHPKSESKPVEKKTETHSTSNIARKVVSEKDSSTVPKYNTTTLHLEPSFNTSAEQIYLTLLDEARIGAWTRSAPVIEKFPPKEGSEFKFFGGSVSGKFLKLVPNEQIVELWRLDDWKAGHFAQLDMKLVQSSGETKLVVKFSGIPIGEEERVKNNFEERYIRSIKITFGFGAVL
modifications: left off: His6, N-terminal, state not stated
notes: yeast Aha1 in cited values

Experiments:
[1] = molecular target: T1, C. albicans HSP90–Sba1 binding (Candida albicans, UniProt P46598); assay: FRET inhibitor screening assay, C. albicans HSP90-Sba1 binding; conditions: 10 or 100 µM (Sba1 20 µM), triplicates, 3 mM ATP, 1% DMSO, 15 min 30 °C
T1 construct: made in house; host or cells: E. coli BL21(DE3)
T1 sequence (P46598 whole entry): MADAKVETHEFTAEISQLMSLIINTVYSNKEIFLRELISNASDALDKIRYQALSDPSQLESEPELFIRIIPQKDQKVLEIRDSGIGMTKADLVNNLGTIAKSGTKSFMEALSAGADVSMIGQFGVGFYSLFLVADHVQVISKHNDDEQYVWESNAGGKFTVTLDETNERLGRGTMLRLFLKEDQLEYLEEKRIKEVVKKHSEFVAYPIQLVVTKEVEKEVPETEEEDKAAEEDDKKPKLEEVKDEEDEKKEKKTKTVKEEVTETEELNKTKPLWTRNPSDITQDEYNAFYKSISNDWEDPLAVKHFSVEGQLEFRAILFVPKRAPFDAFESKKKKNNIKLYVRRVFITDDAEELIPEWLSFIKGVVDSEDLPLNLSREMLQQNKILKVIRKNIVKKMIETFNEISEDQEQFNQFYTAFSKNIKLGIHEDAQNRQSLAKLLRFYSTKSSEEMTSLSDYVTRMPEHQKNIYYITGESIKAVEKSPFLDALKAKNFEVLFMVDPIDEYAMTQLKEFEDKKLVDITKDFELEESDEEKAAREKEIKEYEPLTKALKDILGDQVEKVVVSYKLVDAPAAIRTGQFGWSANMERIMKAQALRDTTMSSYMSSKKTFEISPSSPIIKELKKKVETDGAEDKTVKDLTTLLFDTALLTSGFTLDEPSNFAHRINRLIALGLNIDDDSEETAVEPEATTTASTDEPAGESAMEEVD
Description: We used the Z′ factor (Z′) to optimize the FRET assays for screening purposes. Z′ represents a simple statistical parameter for the quality assessment and optimization of HTS assays and screening assays in general. It is a measure that determines the degree of signal separation between binding and non-binding data sets. Calculation of the Z′ factor is based on the standard deviation of the individual data sets as well as their general signal separation. Values ≥ 0.5 can be classified as excellent for screening purposes. […] Consequently, the fluorescence intensity of the donor decreases (FLDD). […] To obtain an informative Z′ value, we calculated it based on at least three independent experiments amounting to 144 samples for both binding and non-binding control data sets (Figure 4B,E). […] We defined the ‘hit threshold’ as a decrease in readout signal of more than 3 standard deviations (SDs) from the mean signal of the binding control. […]
FRET experiments were carried out in 384-well microtiter plates (Art. No. 3766 Corning, NY, USA, or Art. No. 781906, Greiner Bio-One GmbH, Frickenhausen, Germany) containing a final volume of 20 µL and measured with a microplate reader Infinite M200Pro (Tecan, Männedorf, Switzerland). […] Experiments for the determination of the equilibrium dissociation constants were performed with a filter-based microplate reader Infinite F200Pro (Tecan, Männedorf, Switzerland). […]

S. cerevisiae HSP90 = conditions: cited from earlier work
[2] = molecular target: T2, C. albicans HSP90-mNeonGreen–Sba1-mScarlet-I binding (Candida albicans, UniProt P46598, E36A); conditions: 20 µM added; 1 µM HSP90-mNeonGreen, 2 µM Sba1-mScarlet-I, 5 mM ATP
T2 construct: made in house; host or cells: E. coli BL21(DE3)
T2 sequence (P46598 whole entry, stated change not applied): as the sequence (P46598 whole entry) above
Method: In this investigation, 1 µM HSP90-mNeonGreen was incubated with 2 µM Sba1-mScarlet-I in reaction buffer containing 5 mM ATP either alone (UC) or with the addition of 20 µM Sba1. As a negative control, samples containing 20 µM bovine serum albumin (BSA) were used.
FRET experiments were carried out in 384-well microtiter plates (Art. No. 3766 Corning, NY, USA, or Art. No. 781906, Greiner Bio-One GmbH, Frickenhausen, Germany) containing a final volume of 20 µL and measured with a microplate reader Infinite M200Pro (Tecan, Männedorf, Switzerland). The fluorescence was measured in three channels: excitation (ex.): 488 nm/emission (em.): 525 nm (mNeonGreen fluorescence), ex.: 561 nm/em.: 610 nm (mScarlet-I fluorescence) and the FRET channel ex.: 488 nm/em.: 610 nm. The excitation and emission bandwidths were set to 9 and 20 nm, respectively. Experiments for the determination of the equilibrium dissociation constants were performed with a filter-based microplate reader Infinite F200Pro (Tecan, Männedorf, Switzerland). The fluorescence was measured in three channels using the following filters: ex.: 485 ± 20 nm/em.: 535 ± 20 nm (mNeonGreen channel), ex.: 535 ± 20 nm/em.: 612 ± 10 nm (mScarlet-I channel) and the FRET channel ex.: 485 ± 20 nm/em.: 612 ± 10 nm. […]

C. albicans HSP90 = molecular target: T3, C. albicans HSP90 (Candida albicans, UniProt P46598); assay: ADP-Glo assay, HSP90 ATPase activity; format: biochemical; conditions: HSP90 2.5 µM, 1 mM ATP, 1 h 30 °C; Aha1 alone: up to, at 8-fold molar excess; co-incubation: 20 µM each
T3 construct: made in house; host or cells: E. coli BL21(DE3)
T3 sequence (P46598 whole entry): as the sequence (P46598 whole entry) above
Method: The ADP-Glo™ assay (Promega GmbH, Waldorf, Germany) was performed according to the manufacturer’s protocol. […] The reaction mixture was incubated for 1 h at 30 °C. After 5 min re-tempering to room temperature, 5 µL of ADP-Glo reagent was added to the samples to terminate the kinase reaction and deplete the remaining ATP for 40 min at room temperature. Afterward, 10 µL Kinase Detection Reagent was added to convert the generated ADP back to ATP. In that way, synthesized ATP was measured in a luciferase/luciferin reaction. Luminescence was detected with an Infinite M200 Pro (Tecan, Männedorf, Switzerland) in a 384-well microtiter plate (Art. No. 781075, Greiner Bio-One GmbH, Frickenhausen, Germany) after 40 min for 100 µM ATP samples, or 60 min for 1 mM ATP samples. The luminescence intensity of the sample containing only HSP90 was set to 100%, and the luminescence intensities of the other samples were related to it.

| Molecule | hit identification (EmFRET/FLDD decrease of more than 3 SDs from binding control mean) [1] | ATPase activity, % of initial value in the absence of Sba1 (S. cerevisiae HSP90; decrease to up) | effect on FRET emission (EmFRET) versus untreated control [2] | increase in HSP90 ATPase activity (C. albicans HSP90) | stimulation in ATPase activity (S. cerevisiae HSP90; up to, 5–10-fold molar excess Aha1/HSP90, ref 32 (Wolmarans et al.)) |
| --- | --- | --- | --- | --- | --- |
| B1 | identified as disrupting; also recorded: identified as hits | 50% | significant reduction in FRET emission |  |  |
| B2 |  |  |  | 7 fold | ~ 20 fold |
